Reference: paper PMC2886590

Molecular target: MLL PHD3 finger (residues 1565-1627), GST cleaved (human) (UniProt Q03164)
Experiment: other fluorescence titration

Sequence of MLL PHD3 finger (residues 1565-1627), GST cleaved (human) (Q03164 1565-1627): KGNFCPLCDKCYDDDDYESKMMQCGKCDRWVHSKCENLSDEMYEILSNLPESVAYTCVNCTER

Kd: 19 µM
Substance: H3K4me3 peptide (12-mer histone tail peptide)
